Test results from the DeepSol protein solubility set.

assay: soluble on expression in E. coli; label from the status in PepcDB or PDB records

Soluble on expression in E. coli, not soluble:
MGSDKIHHHHHHMIDVLVIGGGNAALCAALTAREAGASVTLLEAAPREWRGGNSQHTRNLRCMHDEPQDVLVDAYPEEEFWQDLLKVTGGITDEHLARLVIRHSSSCRDWMRRHGVNFQPPLSGTLHLSRTNAFFMGGGKALVNAYYRSARQLGVEIRYETPVDSLELDDNGNFIAAHTSSGRIEARSCVLACGGFESNREWLREAWGQNERGEWPGENFLIRGTRFNQGVLLKFLMQHGADIIGDPSQGHCVAIDARAPLYDGGICTRIDCVSLGIVVNRDAVRFYDEGEDFWPKRYAIWGRLTALQPGQIAYSIIDAKAIGRFMPPVFPGIQADTLPELARKIGLDEAQFVQTVETYNAACRIGTFDHTVLDDCHTENLQPAKTHWARPIDTGPFYAFAVRPGITFTYLGLKVDETAAVRFNGRPSENLFVAGEMMAGNVLGKGYTAGVGMSIGTAFGRIAGTQAAKAALQRHQTGALHEAA
MMNNMDSIINYIYEGDYFIVTSHISPDGDNIGSTLSMYYTLKNLGKNVYYVLDDEAPLNLRFLVEGVKIYKSNEFNMKNYSLIALDCGDKMRICVSDEIKNNASKLICIDHHASNDSYGDLNYVDIDASSTCELVYNLLVRFQQIKDINIINEDIATCLYTGLVTDTGNFSYSNVHASSFEMAKNLLVLGAQKNTIIQNIYQSNSSGYYKLLGEALKGLEIFDSKVSSIVLTQDMMNRNNISFNDVDGITTYTRDIKGIEVGILFKEKKQNEIKVSFRSKNYVDVSEIAKLFGGGGHVRAAGCTIRDSIDNAKKMVLEAVLKSI
HAIFEREGNNLYCEVPINFTMAALGGEIEVPTLDGRVNLKIPGETQTGKLFRMRGKGVKSVRGGAQGDLLCRVVVETPVGLNEKQKQLLKELQESFGGPTGENN
MGSDKIHHHHHHMTKKVLILGAHGKIARLAEKEFLEKTDDSLKLFLRKASRLNPVQPDRETVIEGDATNLEQLVAAMQGVDAVYANLAGGDIKQQAQAVVKAMDKVGIKRLVWISTLGIYDEVPGKFGEWNNSTLGSYITNYRAAADVIEDSDLDYTIVRPAWLTNNDEVDFEVTQKGEVFKGTEVSRKSIAHIVVELIQNNTELKHSIGVNKPNTDGDKPSWY
MGSDKIHHHHHHMLQMIPARPSRALASLSEAYEECRQITARYAKTFYLGTLLMPEAKRQAIWAIYVWCRRTDELVDGPQAAQTNFATLDAWERRLERLFAGEPEDDCDVALVDTLARYPLDIQPFRDMIEGQRMDLLQNRYSTFEDLYTYCYRVAGTVGLMSQPVMGIESTNSRAPWDPTTPPDPTQEALALGIANQLTNILRDVGEDARRGRIYLPQEELAQFNYSEQDLFNGVIDDRWRAFMQFQLDRARDYFEQAERGIRQLSHDARWPVWASLMLYREILDVIEQNNYDVFRKRAYVPTWRKLCSLPVAMLRATVL
MVEVPSFRSNEHFPQLCDKVTVKWDKKRGRFVEAIEDIPIGTVVCVETGITVNVDPQNCYRCLKITENASFAYCKNCEEFYEPDEIACGEFDELGIFKLAAHLVFSYPFADIASLVQSSDPEPPSCAPKALSTQDIEAIFQLTPFPEIGEAFKAPAIQNAIKRIVESLETDENWGRLDQISRTMTFTKALRIMAERSAKNAHTIYSIEQIESQEDNLPMATGLFPISSIFNHSCTPNISGFFVRNTFIFVSQGVRAREELLDSYGVTYHQHTFEQRTNFLASVSGFICHCESCFKMKSLKVLEKPKKYPETIATNASCFTDITSYTENIPRGSKELENLIIAFARRPDSETYTELIFQFWKKFVENAKFRGITYDPYLVRPYVEMTILAWNKEVGCENEEKMSLLIVTHRLLRNCYVDLHPLSELVVKLVNVVANQNADEINRTLEKLKLRARMLWKYSEQSEDL
MSLNFLDFEQPIAELEAKIDSLTAVSRQDEKLDINIDEEVHRLREKSVELTRKIFADLGAWQIAQLARHPQRPYTLDYVRLAFDEFDELAGDRAYADDKAIVGGIARLDGRPVMIIGHQKGRETKEKIRRNFGMPAPEGYRKALRLMQMAERFKMPIITFIDTPGAYPGVGAEERGQSEAIARNLREMSRLGVPVVCTVIGEGGSGGALAIGVGDKVNMLQYSTYSVISPEGCASILWKSADKAPLAAEAMGIIAPRLKELKLIDSIIPEPLGGAHRNPEAMAASLKAQLLADLADLDVLSTEDLKNRRYQRLMSYGYALEHHHHHH
MSLLSGSFLEENMKHLDTYIAFDLEFNTVNDVSHVIQGSAVKYDHHKEVDSFDTYVYTDVPLQSFINGLTGITSNKIAAAPKVEEVMAAFKNFVGELPLIGYNAQKSDLPILAENGLDLRDQYQIDLFDEAYDRRSADLNGIANLRLQTVATFLGIKGRGHNSLEDARMTAAIYESFLETDTNKAYLSQQEEVITDNPFVALGGFFDEGHHHHHH
MIRVCNQIGIPYYAVNFEKQYYEKVFQYFLDEYKAGRTPNPDVLCNKEIKFKAFLEHALSLGADYLATGHYARVDRSGGKVRMLRGIDENKDQTYFLNQLTEDTLSKVMFPIGELQKSRVREIAKEAELATATKKDSTGICFIGERNFKTFLSQYLPAQPGDMMTMDGEVKGRHDGLMYYTIGQRHGLGIGGSGEPWFAVGKDLEKNILYVDQGFHNPLLYSDKITATNISWVRSDIMKGEEISCTAKFRYRQEDHKVTVRMTGEGEAEVIFDEQVRAVTPGQAVVFYDGEECLGGGTIDDVYKDGTKLWYV
MGSDKIHHHHHHMSHHIEDLLNAWSAAPQDDWVLAVVTHVEGSAYRKVGAMMLIHGMGKSVGLVSGGCLEADLRRRAQKVIQTGQAASVCYDATDEADASYQLGCGGLVHLMLLPLCAANHYLHFQALKAALASQGRCHYQLMLTDESLSPGSLGAKVWTSQQALDDAKAGWQLSDFPRPGILQGQSMQGETVRGQSLQDESVQGESASLVVPLREHHRIAIFGGGLDAQPVCQIAQQLGWRVDVVDRRTSYAREYDFVGANIIKLPVSELPKNFWTRLDGAIVMQHNLELDAKALAAIHQHAKQLSYLALLGPGHRRDRVLALAGLEVASFGAYFSAPAGLALGGELPSSIALSILSECHGVLHGAKRVALKEVMA
MAHHHHHHMAIVGDSLNKRRNYTVCGLVSNPLFQKCAEVAQYVAEEYSDEFYVDIFREMPCEFYSRREQLLNSKKIEDGGMEVIVLVGADGHTGPTNGEGEAMSGDDFLNMMQKATCFRVLNIPPERPDSYENMAHLSWKNYLRERGNTYCWMEISIGEMVHGRVTFELYSRVVPHTCSNFWHLCKGDLSRDADEGEEQVPILSYKNSTFFRTLHGAWVMGGDISGGNGRGGYSIYGRYFPNESYAIPHDRVGVLGMCNDGGDTNASSFYITMKAMQWMNGRYVAFGRVVDGLEVVHAIHAVDVKHNQCPKKVITISDCGVIDLTE
MMNQDIEKVLISEEQIQEKVLELGAIIAEDYKNTVPLAIGVLKGAMPFMADLLKRTDTYLEMDFMAVSSYGHSTVSTGEVKILKDLDTSVEGRDILIVEDIIDSGLTLSYLVDLFKYRKAKSVKIVTLLDKPTGRKVDLKADYVGFTVPHEFVVGYGLDYKEQYRNLPYVGVLKPSVYSN

Soluble on expression in E. coli, soluble:
MSDDEDEGRLQIDESPSDSEDKPSISAPPPLPPPLQETPEFQTTYDAHDQAETSGKEDGELDEDDENDDIEPMEIDEEIQLEIDEKPEDLVKDEQISEPTDKMREEFLKVEKTDENAVVESTSSFSPKLIDEQDLKVEEMSDEKHAQSPVSSDMTTSKSPTPSKKENGLMKPPQSTEKAQRKRKESTDIFSSEKRKLSLETVASSSSSSGSSNLSTTPQRSKRSSSHMATIAISACFTDEDIVSVPMMPIQKTPDTAPHSKRAKRDIGTNVITTRSTDTSGLLCNEAIMDTPPGSQMTLEVTVMYRTKNSLAFRVKGCDLIGFIGDGLPPMASSLTNNIASSMGNNNNKKKTASSSGNEEGKDGRSSSASSNGRGARGGSVLKDGKGDKQKGKRKKEETNDDDLEDENQNNEQYGSKKCELVEVDVAQLHDCHYDGCEKRFQKTTDLEYHISKNHKRRVMMYESICTQTSISSLETQNNSTQIDDDLPPMPQMPILKKEVPIKTPIGNVYEDLSDDDSETKPTDLVLKTPSSSASSAVATLMGIAQVSSSTTSATTSVVPPVGAQRSTPATPVSAKIGINPSMVANALAEKNKQQQQQQQKLNQLQPPHNPSLSTAPSSSSAQPPTMIQAHPMAGVFIPPPFHPAMMNPQMAAMMDQQRIAVAMSQQQQMSRTPSRQTISVSDSHKIHELAKSRENQQRQQSATPKTPSESVSTTGVVTPQRQFLPPQMMQPGTPQSILLQQQQQQQQQQQQAAAQHQIIQQMQMQMQRGMAPQMANQELLMMMMGMPHMVQGVPGFPGVPQLPPK
MSLELSLADRPAIVTGASRGIGREIAARFAEAGGDVVVCSRTYEDVEAVATELTQTHDGRVVPVECDVTDREAVRDLVDTTIQEFGDIRVLVNNAGGADESANLLHRCDEETFESMVDLNLKSQFLLSKEVLPAMVAAGGGSIIHMGSVNGLFGIGLSGYSEAKSGLLALSRNIAAHYGQHGVRSNVISAATIETANRRAEMENTEERTGETSARERWLDQYPLGRFGTPREVADTTLFLASEMSSFLTGENLVLDGGLTTSLPTSFINEVYDADEKPTPNEGHHHHHH
MPYEMKFKGVYVLAMEDNSSFKGKIEVGDTVTGVDGKSFKSSEELMNYIKAQKVNQKVTVQFIQDGKAKEATGKLIELPTDKKAGIGIGLTDHTLEHHHHHH
MVEVVGVRFREAGHIYYFAPGKSEYIYNEKVLVESQQSKQLATVAIPKKTVDSDDLPEDLKPILNKATANDLEKEQKNLADAEAAKSIANEKIRAHDLKMKLVRVEYTFDRSKMIFYFTADGRIDFRELVKDLAAIFRTRIELRQIGVRDEAKILGGIGPCGRQLCCSTFLGDFMPVSIKMAKDQGLSLNPVKISGLCGRLMCCLKYENDEYEAAKKELPDYGKEVITPDGKGKVVGLNLLSRIVKVRLHGREIAADYDYEEIKEATAKVAAEKGDQNGLEHHHHHH
MIARKRRARTIHSRYPIGIYGSIVMTDIAQLLGKDADNLLQHRCMTIPSDQLYLPGHDYVDRVMIDNNRPPAVLRNMQTLYNTGRLAGTGYLSILPVDQGVEHSAGASFAANPLYFDPKNIVELAIEAGCNCVASTYGVLASVSRRYAHRIPFLVKLNHNETLSYPNTYDQTLYASVEQAFNMGAVAVGATIYFGSEESRRQIEEISAAFERAHELGMVTVLWAYLRNSAFKKDGVDYHVSADLTGQANHLAATIGADIVKQKMAENNGGYKAINYGYTDDRVYSKLTSENPIDLVRYQLANCYMGRAGLINSGGAAGGETDLSDAVRTAVINKRAGGMGLILGRKAFKKSMADGVKLINAVQDVYLDSKITIA
MIDIQGIKEALPHRYPMLLVDRVLEVSEDTIVAIKNVTINEPFFNGHFPQYPVMPGVVIMEALAQTAGVLELSKPENKGKLVFYAGMDKVKFKKQVVPGDQLVMTATFVKRRGTIAVVEAKAEVDGKLAASGTLTFAIGN
SAENHCELLPPAPSGLGAGLGGGLCRRCSAGMGALAQRPGGVSKWVRLNVGGTYFLTTRQTLCRDPKSFLYRLCQADPDLDSDKDETGAYLIDRDPTYFGPVLNYLRHGKLVINKDLAEEGVLEEAEFYNITSLIKLVKDKIRERDSRISQMPVKHVYRVLQCQEEELTQMVSTMSDGWKFEQLVSIGSSYNYGNEDQAEFLCVVSKELHNTPYGTTSEPSEKAKILQERGSRM
